B1: KRT18 (parent)
chain: KSQDLAKIMADIRAQYDELARKNR
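Also: lentivirally expressed fusions sorted by FACS into six bins by GFP to DsRed ratio, PSI derived from sequencing read proportions per bin multiplied by bin number.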

The series covers variants of B1. As to the kind of experiment: protein stability index of a GFP-peptide fusion (GPS, HEK-293T) (PSI 1-6); higher = more stable. Particulars: c terminus: a fixed tail appended.
For KSQDLAKIMADIRAQNDELARKNR, the protein stability index turned out to be 4.13.
For KSQDLAKIMADIRAQSDELARKNR, the protein stability index was found to be 3.88.
Turning to KSQDLAKIMADIRAQHDELARKNR, the protein stability index is 3.32.
On to KSQDLAKIMADIRAQVDELARKNR, for which the protein stability index was 3.58.
KSQDLAKIMADIRAQTDELARKNR: the protein stability index was 3.9.
KSQDLAKIMADIRAQMDELARKNR: the protein stability index is 3.31.
As for KSQDLAKIMADIRAQDDELARKNR, the figure is 4.38; as for KSQDLAKIMADIRAQRDELARKNR, 3.79; as for KSQDLAKIMADIRAQKDELARKNR, 3.93.
For KSQDLAKIMADIRAQGDELARKNR, the protein stability index came out at 3.28.
Turning to KSQDLAKIMADIRAQADELARKNR, the protein stability index came out at 4.24.
In the case of KSQDLAKIMADIRAQCDELARKNR, the protein stability index was 3.82.
On to KSQDLAKIMADIRAQLDELARKNR, for which the protein stability index came out at 3.65.
In the case of KSQDLAKIMADIRAQPDELARKNR, the protein stability index was 4.47.
To KSQDLAKIMADIRAQFDELARKNR belongs 2.83; to KSQDLAKIMADIRAQQDELARKNR, 3.89; to KSQDLAKIMADIRAQIDELARKNR, 3.08.
Take KSQDLAKIMADIRAQWDELARKNR: the protein stability index amounted to 2.67.
Regarding KSQDLAKIMADIRAQEDELARKNR, the protein stability index was found to be 4.37.
On to KSQDLAKIMADIRAQYDELARKIR, for which the protein stability index was found to be 2.58.
Regarding KSQDLAKIMADIRAQYDELARKYR, the protein stability index stood at 1.94.
KSQDLAKIMADIRAQYDELARKAR: the protein stability index is 2.9.
Take KSQDLAKIMADIRAQYDELARKHR: the protein stability index stood at 2.56.
With KSQDLAKIMADIRAQYDELARKSR, the protein stability index was 3.29.
As for KSQDLAKIMADIRAQYDELARKMR, the figure is 2.02; as for KSQDLAKIMADIRAQYDELARKVR, 3.04.
As to KSQDLAKIMADIRAQYDELARKWR, the protein stability index came out at 2.33.
As for KSQDLAKIMADIRAQYDELARKCR, the figure is 3.06; as for KSQDLAKIMADIRAQYDELARKDR, 3.86.
For the variant KSQDLAKIMADIRAQYDELARKQR, the protein stability index was 2.65.
Take KSQDLAKIMADIRAQYDELARKPR: the protein stability index came out at 3.52.
As to KSQDLAKIMADIRAQYDELARKRR, the protein stability index turned out to be 2.5.
As for KSQDLAKIMADIRAQYDELARKGR, the protein stability index was determined as 2.61.
Take KSQDLAKIMADIRAQYDELARKLR: the protein stability index was determined as 2.51.
Consider KSQDLAKIMADIRAQYDELARKFR, for which the protein stability index came to 2.07.
As for KSQDLAKIMADIRAQYDELARKER, the figure is 3.83; as for KSQDLAKIMADIRAQYDELARKKR, 2.87; as for KSQDLAKIMADIRAQYDELARKTR, 2.88.
As for KSQDLAKIMADIRAQYDEWARKNR, the figure is 2.38.
Turning to KSQDLAKIMADIRAQYDEQARKNR, the protein stability index turned out to be 3.59.
To KSQDLAKIMADIRAQYDERARKNR belongs 3.63; to KSQDLAKIMADIRAQYDEHARKNR, 3.39.
KSQDLAKIMADIRAQYDECARKNR: the protein stability index was determined as 3.08.
As for KSQDLAKIMADIRAQYDEKARKNR, the figure is 3.74; as for KSQDLAKIMADIRAQYDEFARKNR, 2.46; as for KSQDLAKIMADIRAQYDEGARKNR, 3.44.
Take KSQDLAKIMADIRAQYDEAARKNR: the protein stability index turned out to be 3.52.
As to KSQDLAKIMADIRAQYDETARKNR, the protein stability index was 3.58.
Consider KSQDLAKIMADIRAQYDEYARKNR, for which the protein stability index was found to be 2.73.
Turning to KSQDLAKIMADIRAQYDEEARKNR, the protein stability index was 4.01.
To KSQDLAKIMADIRAQYDEIARKNR belongs 3.12.
For the variant KSQDLAKIMADIRAQYDEMARKNR, the protein stability index came to 3.2.
For the variant KSQDLAKIMADIRAQYDEDARKNR, the protein stability index stood at 3.75.
To KSQDLAKIMADIRAQYDENARKNR belongs 3.63; to KSQDLAKIMADIRAQYDEPARKNR, 2.98; to KSQDLAKIMADIRAQYDEVARKNR, 3.27.
As for KSQDLAKIMADIRAQYDESARKNR, the protein stability index was 3.71.
Consider KSQDLAKIMADIRAQYDHLARKNR, for which the protein stability index was determined as 2.76.
As for KSQDLAKIMADIRAQYDVLARKNR, the figure is 2.31.
KSQDLAKIMADIRAQYDGLARKNR: the protein stability index was 2.66.
To KSQDLAKIMADIRAQYDNLARKNR belongs 2.62; to KSQDLAKIMADIRAQYDFLARKNR, 2.74.
With KSQDLAKIMADIRAQYDDLARKNR, the protein stability index was 2.16.
As to KSQDLAKIMADIRAQYDALARKNR, the protein stability index turned out to be 2.59.
Take KSQDLAKIMADIRAQYDILARKNR: the protein stability index stood at 2.23.
Turning to KSQDLAKIMADIRAQYDRLARKNR, the protein stability index was 2.39.
As for KSQDLAKIMADIRAQYDWLARKNR, the protein stability index worked out at 1.96.
In the case of KSQDLAKIMADIRAQYDMLARKNR, the protein stability index came to 2.54.
On to KSQDLAKIMADIRAQYDCLARKNR, for which the protein stability index amounted to 2.45.
Take KSQDLAKIMADIRAQYDYLARKNR: the protein stability index came out at 3.24.
With KSQDLAKIMADIRAQYDKLARKNR, the protein stability index is 1.99.
KSQDLAKIMADIRAQYDQLARKNR: the protein stability index worked out at 2.68.
With KSQDLAKIMADIRAQYDPLARKNR, the protein stability index was 2.8.
With KSQDLAKIMADIRAQYDSLARKNR, the protein stability index is 2.72.
For the variant KSQDLAKIMADIRAQYDTLARKNR, the protein stability index is 2.35.
Take KSQDLAKIMADIRAQYDLLARKNR: the protein stability index is 2.38.
For the variant KSQDLAKIMADIRAQYDELADKNR, the protein stability index came to 2.36.
With KSQDLAKIMADIRAQYDELALKNR, the protein stability index is 2.5.
KSQDLAKIMADIRAQYDELACKNR: the protein stability index was 2.68.
As for KSQDLAKIMADIRAQYDELAQKNR, the protein stability index was 2.59.
Take KSQDLAKIMADIRAQYDELAAKNR: the protein stability index turned out to be 3.1.
As to KSQDLAKIMADIRAQYDELAHKNR, the protein stability index worked out at 3.26.
To KSQDLAKIMADIRAQYDELAPKNR belongs 3.55.
On to KSQDLAKIMADIRAQYDELAVKNR, for which the protein stability index worked out at 1.91.
As to KSQDLAKIMADIRAQYDELAFKNR, the protein stability index was found to be 2.39.
For KSQDLAKIMADIRAQYDELAIKNR, the protein stability index came out at 3.24.
On to KSQDLAKIMADIRAQYDELATKNR, for which the protein stability index stood at 2.83.
Turning to KSQDLAKIMADIRAQYDELAEKNR, the protein stability index came to 2.14.
In the case of KSQDLAKIMADIRAQYDELAKKNR, the protein stability index turned out to be 2.9.
Take KSQDLAKIMADIRAQYDELAGKNR: the protein stability index was determined as 3.2.
On to KSQDLAKIMADIRAQYDELASKNR, for which the protein stability index is 2.95.
Regarding KSQDLAKIMADIRAQYDELAYKNR, the protein stability index was 2.65.
In the case of KSQDLAKIMADIRAQYDELAMKNR, the protein stability index stood at 2.83.
For KSQDLAKIMADIRAQYDELANKNR, the protein stability index turned out to be 2.96.

These data come from the supplement of paper PMC10567573.
